From patent US20260209353A1 (BINACEA PHARMA, published 2026) come the findings set out here.

The target of this experiment is T1, hu-CD8A ECD (recombinant, coated on ELISA plates) (human, UniProt P01732 22-182).
T1 construct: also called Human CD8A ECD; not shown: C-terminal (His)x6 or Fc tag
The experiment is described as follows: ELISA, VHH supernatants on hu-CD8A ECD coated plates. On the technique in general: In an ELISA, binding on a coated surface is turned into a signal by an enzyme label.

T1 sequence (P01732 22-182): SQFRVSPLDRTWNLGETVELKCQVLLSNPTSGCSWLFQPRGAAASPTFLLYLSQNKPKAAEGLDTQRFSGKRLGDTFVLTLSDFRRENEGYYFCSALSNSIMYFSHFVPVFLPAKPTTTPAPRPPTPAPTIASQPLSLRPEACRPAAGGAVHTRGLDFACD

B1: Clone 3C3 VHH (secreted VHH in TG1 supernatant) (VHH)
VHH: QVQLVDSGGGLVQAGGSLRVSCAASGLTVSSEHMGWFRQAPGKQREFVAAISGNGGSTYYADSVKGRFTISRDNAKNTVYLQMNSLKPEDTAVYTCAADRQVWRVTSYHDYDYDSWGQGTLVTVSS
notes: Expressed from phagemid pADL-23c
Regarding B1, the binding result is “binds”.

B2: Clone 1D7 VHH (secreted VHH in TG1 supernatant) (VHH)
VHH: QVQLQESGGGLVQAGGSLRLSCAASGFTFDDYAIGWFRQAPGKEREGVSCISNIDGRTYYADSVKGRFTISSDNAKNTVYLQMNSLKPEDTAVYYCAAEGLHSCRDLYYGMDYWGKGTLVTVSS
notes: as for B1
In the case of B2, the binding result is recorded as “binds”.

B3: Clone 1B1 VHH (secreted VHH in TG1 supernatant) (VHH)
VHH: QVQLQESGGGLVQAGGSLKLSCAASGFTFNDYAIGWFPQAPGKEREGVSCIINIDGSTYYADSVKGRFPISSDNAKNTVYLQMNSLKPEDTAVYYCAAEGLHSCRDLYYGMDYWGKGTLVTVSS
notes: as for B1
As to B3, the binding result is “binds”.

B4: Clone 2E7 VHH (secreted VHH in TG1 supernatant) (VHH)
VHH: QVQLQESGGGLVQAGGSLRLSCAASGVPFDDYAIGWFRQAPGKEREGVSCISNIDGSTYYADSVKGRFTISSDNAKNTVYLQMNSLKPEDTAVYYCAAEGLHSCRDLYYGMDYWGKGTLVTVSS
notes: as for B1
For the molecule B4, the binding result is given as “binds”.

B5: Clone 1B3 VHH (secreted VHH in TG1 supernatant) (VHH)
VHH: QVQLQESGGGLVQAGGSLRLSCAASGFTFDDYAIGWFRQAPGKEREGVSCISNIDGHTYYADSVKGRFTISSDNAKNTVYLQMNSLKPEDTAVYYCAAEGLHSCKDLYYGMDYWGKGTLVTVSS
notes: as for B1
With B5, the binding result was “binds”.

B6: Clone 1E2 VHH (secreted VHH in TG1 supernatant) (VHH)
VHH: QVQLQESGGGLVQAGGSLRLSCAASGFTFDDYAIGWFRQAPGKEREGVSCISNIDGRTYYADSVKGRFTISSDNAKNTVYLQMNSLKPEDTAVYYCAAEGLHPCRDLYYGMDYWGKGTLVTVSS
notes: as for B1
In the case of B6, the binding result is given as “binds”.

B7: Clone 2G1 VHH (secreted VHH in TG1 supernatant) (VHH)
VHH: QVQLQESGGGLVQAGGSLRLSCAASGFTFDDYAIGWFRQAPGKEREGVSCISSIDGSTYYADSVKGRFTISRDNDKNTVYLQMNSLKPEDTAVYYCTAEGLHSCRDLYYGMDYWGKGTQVTVSS
notes: as for B1
Regarding B7, the binding result is given as “binds”.

B8: Clone 2B10 VHH (secreted VHH in TG1 supernatant) (VHH)
VHH: QVQLVESGGGLVQAGGSLRLSCAASGFTFDDYAIGWFRQAPGKEREGVSCISNIDGSTYYADSVKGRFTISSDNAKNTVYLQMNSLKPEDTAVYYCAAEGLRSCRDLYYGMDYWGKGTLVTVSS
notes: as for B1
B8: the binding result is on record as “binds”.

B9: Clone 2G7 VHH (secreted VHH in TG1 supernatant) (VHH)
VHH: QVKLEESGGGLVQAGGSLRLSCAASGFTFDDYAIGWFRQAPGKEREGVSCISNIDGSTYYADSVKGRFTISSDNAKNTVYLQMNSLKPEDTAVYYCAAEGLHSCRDLYYGMDHWGKGTLVTVSS
notes: as for B1
B9: the binding result is recorded as “binds”.
